In the supplement of paper PMC11246515:
± gives the standard deviation of the averaged measurements.

Assay: total protein half-life in vivo (active degradation + dilution); higher = more stable protein
[1] = E. coli NCM3722 delta-clpP delta-lon delta-hslV, growth: N-lim chemostat, doubling time 6 h
[2] = E. coli NCM3722 delta-hslV, growth: N-lim chemostat, doubling time 6 h
[3] = E. coli NCM3722 delta-lon, growth: N-lim chemostat, doubling time 6 h
[4] = E. coli NCM3722 delta-smpB, growth: N-lim chemostat, doubling time 6 h
[5] = wild type E. coli NCM3722, growth: C-lim chemostat, doubling time 6 h
[6] = wild type E. coli NCM3722, growth: C-lim chemostat, doubling time 12 h
[7] = wild type E. coli NCM3722, growth: N-lim chemostat, doubling time 6 h
[8] = wild type E. coli NCM3722, growth: N-lim chemostat, doubling time 12 h
[9] = wild type E. coli NCM3722, growth: P-lim chemostat, doubling time 6 h
[10] = wild type E. coli NCM3722, growth: P-lim chemostat, doubling time 12 h
[11] = E. coli NCM3722 delta-clpP, growth: N-lim chemostat, doubling time 6 h
[12] = wild type E. coli NCM3722, growth: C-lim chemostat, doubling time 3 h

## MSTDNKQSLPAITLAAIGVVYGDIGTSPLYTLRECLSGQFGFGVERDAVFGFLSLIFWLLIFVVSIKYLTFVMRADNAGEGGILTLMSLAGRNTSARTTSMLVIMGLIGGSFFYGEVVITPAISVMSAIEGLEIVAPQLDTWIVPLSIIVLTLLFMIQKHGTAMVGKLFAPIMLTWFLILAGLGLRSIIANPEVLHALNPMWAVHFFLEYKTVSFIALGAVVLSITGVEALYADMGHFGKFPIRLAWFTVVLPSLTLNYFGQGALLLKNPEAIKNPFFLLAPDWALIPLLIIAALATVIASQAVISGVFSLTRQAVRLGYLSPMRIIHTSEMESGQIYIPFVNWMLYVAVVIVIVSFEHSSNLAAAYGIAVTGTMVLTSILSTTVARQNWHWNKYFVALILIAFLCVDIPLFTANLDKLLSGGWLPLSLGTVMFIVMTTWKSERFRLLRRMHEHGNSLEAMIASLEKSPPVRVPGTAVYMSRAINVIPFALMHNLKHNKVLHERVILLTLRTEDAPYVHNVRRVQIEQLSPTFWRVVASYGWRETPNVEEVFHRCGLEGLSCRMMETSFFMSHESLILGKRPWYLRLRGKLYLLLQRNALRAPDQFEIPPNRVIELGTQVEI
[1]
  total protein half-life in vivo: 7.06 ± 1.1 h
[2]
  total protein half-life in vivo: 6.21 h
[3]
  total protein half-life in vivo: 6.28 ± 0.53 h
[4]
  total protein half-life in vivo: 5.9 ± 0.4 h
[5]
  total protein half-life in vivo: 6.79 ± 0.6 h
[6]
  total protein half-life in vivo: 14.2 ± 1.2 h
[7]
  total protein half-life in vivo: 6.28 ± 1 h
[8]
  total protein half-life in vivo: 12.17 ± 0.096 h
[9]
  total protein half-life in vivo: 6.43 ± 0.26 h
[10]
  total protein half-life in vivo: 12.6 ± 0.69 h

## MSTIIMDLCSYTRLGLTGYLLSRGVKKREINDIETVDDLAIACDSQRPSVVFINEDCFIHDASNSQRIKLIINQHPNTLFIVFMAIANVHFDEYLLVRKNLLISSKSIKPESLDDILGDILKKETTITSFLNMPTLSLSRTESSMLRMWMAGQGTIQISDQMNIKAKTVSSHKGNIKRKIKTHNKQVIYHVVRLTDNVTNGIFVNMR [P0DMC9]
[1]
  total protein half-life in vivo: 5.4 ± 0.66 h
[3]
  total protein half-life in vivo: 1 ± 0.029 h
[4]
  total protein half-life in vivo: 1.51 ± 0.036 h

## MSTITLLCIALAGVIMLLLLVIKAKVQPFVALLLVSLLVALAAGIPAGEVGKVMIAGMGGVLGSVTIIIGLGAMLGRMIEHSGGAESLANYFSRKLGDKRTIAALTLAAFFLGIPVFFDVGFIILAPIIYGFAKVAKISPLKFGLPVAGIMLTVHVAVPPHPGPVAAAGLLHADIGWLTIIGIAISIPVGVVGYFAAKIINKRQYAMSVEVLEQMQLAPASEEGATKLSDKINPPGVALVTSLIVIPIAIIMAGTVSATLMPPSHPLLGTLQLIGSPMVALMIALVLAFWLLALRRGWSLQHTSDIMGSALPTAAVVILVTGAGGVFGKVLVESGVGKALANMLQMIDLPLLPAAFIISLALRASQGSATVAILTTGGLLSEAVMGLNPIQCVLVTLAACFGGLGASHINDSGFWIVTKYLGLSVADGLKTWTVLTTILGFTGFLITWCVWAVI
[6]
  total protein half-life in vivo: 15.2 h

## MSTLEQTIGNTPLVKLQRMGPDNGSEVWLKLEGNNPAGSVKDRAALSMIVEAEKRGEIKPGDVLIEATSGNTGIALAMIAALKGYRMKLLMPDNMSQERRAAMRAYGAELILVTKEQGMEGARDLALEMANRGEGKLLDQFNNPDNPYAHYTTTGPEIWQQTGGRITHFVSSMGTTGTITGVSRFMREQSKPVTIVGLQPEEGSSIPGIRRWPTEYLPGIFNASLVDEVLDIHQRDAENTMRELAVREGIFCGVSSGGAVAGALRVAKANPDAVVVAIICDRGDRYLSTGVFGEEHFSQGAGI
[1]
  total protein half-life in vivo: 6.17 ± 1.7 h
[11]
  total protein half-life in vivo: 4.5 ± 0.098 h
[2]
  total protein half-life in vivo: 4.55 ± 0.61 h
[3]
  total protein half-life in vivo: 4.81 ± 0.087 h
[4]
  total protein half-life in vivo: 4.19 ± 0.058 h
[12]
  total protein half-life in vivo: 2.95 ± 0.34 h
[5]
  total protein half-life in vivo: 6.01 ± 0.21 h
[6]
  total protein half-life in vivo: 10.2 ± 0.28 h
[7]
  total protein half-life in vivo: 4.66 ± 0.086 h
[8]
  total protein half-life in vivo: 7.44 ± 0.39 h
[9]
  total protein half-life in vivo: 5.64 ± 0.13 h
[10]
  total protein half-life in vivo: 11.6 ± 0.56 h

## MSTPDFSTAENNQELANEVSCLKAMLTLMLQAMGQADAGRVMLKMEKQLALIEDETQAAVFSKTVKQIKQAYRQ [P0AD07]
[10]
  total protein half-life in vivo: 7.56 ± 2.9 h

## MSTPLQGIKVLDFTGVQSGPSCTQMLAWFGADVIKIERPGVGDVTRHQLRDIPDIDALYFTMLNSNKRSIELNTKTAEGKEVMEKLIREADILVENFHPGAIDHMGFTWEHIQEINPRLIFGSIKGFDECSPYVNVKAYENVAQAAGGAASTTGFWDGPPLVSAAALGDSNTGMHLLIGLLAALLHREKTGRGQRVTMSMQDAVLNLCRVKLRDQQRLDKLGYLEEYPQYPNGTFGDAVPRGGNAGGGGQPGWILKCKGWETDPNAYIYFTIQEQNWENTCKAIGKPEWITDPAYSTAHARQPHIFDIFAEIEKYTVTIDKHEAVAYLTQFDIPCAPVLSMKEISLDPSLRQSGSVVEVEQPLRGKYLTVGCPMKFSAFTPDIKAAPLLGEHTAAVLQELGYSDDEIAAMKQNHAI
[9]
  total protein half-life in vivo: 5.48 h

## MSTPRQILAAIFDMDGLLIDSEPLWDRAELDVMASLGVDISRRNELPDTLGLRIDMVVDLWYARQPWNGPSRQEVVERVIARAISLVEETRPLLPGVREAVALCKEQGLLVGLASASPLHMLEKVLTMFDLRDSFDALASAEKLPYSKPHPQVYLDCAAKLGVDPLTCVALEDSVNGMIASKAARMRSIVVPAPEAQNDPRFVLADVKLSSLTELTAKDLLG
[1]
  total protein half-life in vivo: 4.76 ± 0.9 h
[11]
  total protein half-life in vivo: 5.14 ± 0.84 h
[2]
  total protein half-life in vivo: 4.544 ± 0.045 h
[3]
  total protein half-life in vivo: 5.444 ± 0.011 h
[4]
  total protein half-life in vivo: 4.27 ± 0.18 h
[12]
  total protein half-life in vivo: 2.99 ± 0.3 h
[5]
  total protein half-life in vivo: 5.48 ± 0.35 h
[6]
  total protein half-life in vivo: 12.1 ± 3 h
[7]
  total protein half-life in vivo: 4.47 ± 0.14 h
[8]
  total protein half-life in vivo: 8.91 ± 1.3 h
[9]
  total protein half-life in vivo: 5.65 ± 0.52 h
[10]
  total protein half-life in vivo: 12.3 ± 0.28 h

## MSTQLDPTQLAIEFLRRDQSNLSPAQYLKRLKQLELEFADLLTLSSAELKEEIYFAWRLGVH
[1]
  total protein half-life in vivo: 5.63 ± 0.47 h
[11]
  total protein half-life in vivo: 3.08 ± 0.39 h
[3]
  total protein half-life in vivo: 2.3 h
[4]
  total protein half-life in vivo: 1.29 h
[6]
  total protein half-life in vivo: 1.9 h
[7]
  total protein half-life in vivo: 0.632 h
[8]
  total protein half-life in vivo: 1.08 h
[10]
  total protein half-life in vivo: 0.514 h

## MSTQYETQGYTINNAGRRLVVDPITRIEGHMRCEVNINDQNVITNAVSCGTMFRGLEIILQGRDPRDAWAFVERICGVCTGVHALASVYAIEDAIGIKVPDNANIIRNIMLATLWCHDHLVHFYQLAGMDWIDVLDALKADPRKTSELAQSLSSWPKSSPGYFFDVQNRLKKFVEGGQLGIFRNGYWGHPQYKLPPEANLMGFAHYLEALDFQREIVKIHAVFGGKNPHPNWIVGGMPCAINIDESGAVGAVNMERLNLVQSIITRTADFINNVMIPDALAIGQFNKPWSEIGTGLSDKCVLSYGAFPDIANDFGEKSLLMPGGAVINGDFNNVLPVDLVDPQQVQEFVDHAWYRYPNDQVGRHPFDGITDPWYNPGDVKGSDTNIQQLNEQERYSWIKAPRWRGNAMEVGPLARTLIAYHKGDAATVESVDRMMSALNLPLSGIQSTLGRILCRAHEAQWAAGKLQYFFDKLMTNLKNGNLATASTEKWEPATWPTECRGVGFTEAPRGALGHWAAIRDGKIDLYQCVVPTTWNASPRDPKGQIGAYEAALMNTKMAIPEQPLEILRTLHSFDPCLACSTHVLGDDGSELISVQVR [P0ACD8]
[1]
  total protein half-life in vivo: 4.51 ± 0.84 h

## MSTTHNVPQGDLVLRTLAMPADTNANGDIFGGWLMSQMDIGGAILAKEIAHGRVVTVRVEGMTFLRPVAVGDVVCCYARCVQKGTTSVSINIEVWVKKVASEPIGQRYKATEALFKYVAVDPEGKPRALPVE [P0A8Z0]
[1]
  total protein half-life in vivo: 5.03 ± 0.4 h
[11]
  total protein half-life in vivo: 5.16 ± 0.9 h
[2]
  total protein half-life in vivo: 5.24 ± 0.38 h
[3]
  total protein half-life in vivo: 5.86 ± 0.43 h
[4]
  total protein half-life in vivo: 5 ± 0.31 h
[12]
  total protein half-life in vivo: 2.93 ± 0.13 h
[5]
  total protein half-life in vivo: 5.72 ± 0.64 h
[6]
  total protein half-life in vivo: 11.1 ± 0.23 h
[7]
  total protein half-life in vivo: 5.6 ± 0.096 h
[8]
  total protein half-life in vivo: 10.1 ± 0.37 h
[9]
  total protein half-life in vivo: 5.8 ± 0.5 h
[10]
  total protein half-life in vivo: 13.3 ± 0.14 h
